Experimental findings from US20150111814A1 are described below.

The target of the assay is HIV-1 BaL envelope protein spike (Env) on virions (HIV-1 BaL strain). The assay can be described thus: cell-based or functional assay.

Substance “DAVEI 4 (Dual Acting Virucidal Entry Inhibitor; cyanovirin-N-(Gly4Ser)4-His6-MPER fusion)” yielded an IC50, p24 leakage from fully infectious HIV-1 BaL (ELISA) of 200 nM.

Regarding “DAVEI 8 (Dual Acting Virucidal Entry Inhibitor; cyanovirin-N-(Gly4Ser)8-His6-MPER fusion)”, the IC50, p24 leakage from fully infectious HIV-1 BaL (ELISA) was found to be 395 nM.
